Laboratory results published in article PMC6760278.

Biological target: T1, OsNPPR1-repeat-MBP (Oryza sativa (rice), UniProt Q6Z2B6 182-806)
T1 sequence: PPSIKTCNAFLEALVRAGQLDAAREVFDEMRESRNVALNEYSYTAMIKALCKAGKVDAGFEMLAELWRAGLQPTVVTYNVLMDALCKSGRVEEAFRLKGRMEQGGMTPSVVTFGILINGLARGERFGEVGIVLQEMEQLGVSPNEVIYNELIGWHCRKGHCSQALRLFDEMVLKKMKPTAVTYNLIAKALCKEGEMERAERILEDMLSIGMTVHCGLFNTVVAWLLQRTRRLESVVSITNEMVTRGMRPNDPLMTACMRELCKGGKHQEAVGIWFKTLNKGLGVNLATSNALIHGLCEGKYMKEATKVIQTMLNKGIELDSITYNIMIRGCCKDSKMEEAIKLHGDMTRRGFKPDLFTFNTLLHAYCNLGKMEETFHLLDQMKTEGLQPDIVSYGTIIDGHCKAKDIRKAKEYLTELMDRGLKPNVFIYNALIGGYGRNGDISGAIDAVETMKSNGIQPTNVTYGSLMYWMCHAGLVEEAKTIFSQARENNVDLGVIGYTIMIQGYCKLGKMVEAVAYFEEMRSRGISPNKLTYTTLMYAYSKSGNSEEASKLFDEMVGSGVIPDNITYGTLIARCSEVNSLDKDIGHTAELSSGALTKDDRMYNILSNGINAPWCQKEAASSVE
Assay: EMSA

CUCACCUCACCUCACCUCACCUCACCUCAC (ssRNA) [CUCAC probe]
binding result: binds
